Measured values published in patent US20210147508A1 (ACCELERON PHARMA, published 2021).

T1: TGFβ3 (human, UniProt P10600 301-412)
T1 sequence (looked up): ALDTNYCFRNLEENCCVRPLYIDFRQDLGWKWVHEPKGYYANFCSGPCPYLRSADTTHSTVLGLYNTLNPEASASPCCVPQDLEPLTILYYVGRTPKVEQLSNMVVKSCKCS

T2: TGFβ2 (human, UniProt P61812 303-414)
T2 sequence (looked up): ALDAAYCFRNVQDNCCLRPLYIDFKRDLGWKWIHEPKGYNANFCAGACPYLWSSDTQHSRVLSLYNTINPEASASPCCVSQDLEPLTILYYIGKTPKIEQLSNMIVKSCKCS


Columns and labels:
Assay in all cases: cell-based or functional assay
[1] = target: TGFβ1 (human, UniProt P01137 279-390)
[2] = target: T1, TGFβ3
[3] = target: T2, TGFβ2

Sequence of TGFβ1 (P01137 279-390 limits assumed): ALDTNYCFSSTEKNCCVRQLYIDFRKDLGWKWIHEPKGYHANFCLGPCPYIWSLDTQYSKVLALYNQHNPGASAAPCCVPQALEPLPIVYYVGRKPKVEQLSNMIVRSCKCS

| IC50 (pM), inhibition of TGFβ1 (640 pg/mL), CAGA12-luciferase reporter in A549 cells [1] [pM] | IC50 (pM), inhibition of TGFβ3 (270 pg/mL), CAGA12-luciferase reporter in A549 cells [2] [pM] | IC50 (pM), inhibition of TGFβ2 (480 pg/mL), CAGA12-luciferase reporter in A549 cells [3] [pM] | Binder |
| --- | --- | --- | --- |
| < 350 | < 90 | ~200 | TGFβRIISHORT-Fc:ALK5-Fc heterodimer (Fc fusion) chain 1: TIPPHVQKSVNNDMIVTDNNGAVKFPQLCKFCDVRFSTCDNQKSCMSNCSITSICEKPQEVCVAVWRKNDENITLETVCHDPKLPYHDFILEDAASPKCIMKEKKKPGETFFMCSCSSDECNDNIIFSEEYNTSNPDTGGGTHTCPPCPAPELLGGPSVFLFPPKPKDTLMISRTPEVTCVVVDVSHEDPEVKFNWYVDGVEVHNAKTKPREEQYNSTYRVVSVLTVLHQDWLNGKEYKCKVSNKALPAPIEKTISKAKGQPREPQVYTLPPSRKEMTKNQVSLTCLVKGFYPSDIAVEWESNGQPENNYKTTPPVLKSDGSFFLYSKLTVDKSRWQQGNVFSCSVMHEALHNHYTQKSLSLSPGK chain 2: ALLPGATALQCFCHLCTKDNFTCVTDGLCFVSVTETTDKVIHNSMCIAEIDLIPRDRPFVCAPSSKTGSVTTTYCCNQDHCNKIELPTTVKSSPGLGPVETGGGTHTCPPCPAPELLGGPSVFLFPPKPKDTLMISRTPEVTCVVVDVSHEDPEVKFNWYVDGVEVHNAKTKPREEQYNSTYRVVSVLTVLHQDWLNGKEYKCKVSNKALPAPIEKTISKAKGQPREPQVYTLPPSREEMTKNQVSLTCLVKGFYPSDIAVEWESNGQPENNYDTTPPVLDSDGSFFLYSDLTVDKSRWQQGNVFSCSVMHEALHNHYTQKSLSLSPG |
| 204 | 35 | 154 | TGFβRIILONG-Fc:ALK5-Fc heterodimer (Fc fusion) chain 1: TIPPHVQKSDVEMEAQKDEIICPSCNRTAHPLRHINNDMIVTDNNGAVKFPQLCKFCDVRFSTCDNQKSCMSNCSITSICEKPQEVCVAVWRKNDENITLETVCHDPKLPYHDFILEDAASPKCIMKEKKKPGETFFMCSCSSDECNDNIIFSEEYNTSNPDTGGGTHTCPPCPAPELLGGPSVFLFPPKPKDTLMISRTPEVTCVVVDVSHEDPEVKFNWYVDGVEVHNAKTKPREEQYNSTYRVVSVLTVLHQDWLNGKEYKCKVSNKALPAPIEKTISKAKGQPREPQVYTLPPSRKEMTKNQVSLTCLVKGFYPSDIAVEWESNGQPENNYKTTPPVLKSDGSFFLYSKLTVDKSRWQQGNVFSCSVMHEALHNHYTQKSLSLSPGK chain 2: ALLPGATALQCFCHLCTKDNFTCVTDGLCFVSVTETTDKVIHNSMCIAEIDLIPRDRPFVCAPSSKTGSVTTTYCCNQDHCNKIELPTTVKSSPGLGPVETGGGTHTCPPCPAPELLGGPSVFLFPPKPKDTLMISRTPEVTCVVVDVSHEDPEVKFNWYVDGVEVHNAKTKPREEQYNSTYRVVSVLTVLHQDWLNGKEYKCKVSNKALPAPIEKTISKAKGQPREPQVYTLPPSREEMTKNQVSLTCLVKGFYPSDIAVEWESNGQPENNYDTTPPVLDSDGSFFLYSDLTVDKSRWQQGNVFSCSVMHEALHNHYTQKSLSLSPG |
